Data from paper doi:10.1101/197848.

Target: Xenopus Smc3R626C-Halo (subunit of the hinge-substituted recombinant tetramer, not crosslinked) (Xenopus) (UniProt O93309)
Assay: cross-linking

- crosslinking efficiency: 40%
Substance: Xenopus Smc1D566C (subunit of the hinge-substituted recombinant tetramer) (from UniProt O93308 1-1232) (natural protein)
